Measurements published in publication PMC10288270, “Study on the Role of an Erythrocyte Membrane‐Coated Nanotheranostic System in Targeted Immune Regulation of Alzheimer's Disease”.

Target: Amyloid beta 1-42 (UniProt P05067 672-713)
Experiment: fluorescence recovery (FAM/BHQ1 dequenching); Abeta 0-160 ug/mL, 2 h; TBS: 1 mM Tris-HCl, 100 mM NaCl, 4 mM MgCl2, 5 mM KCl, pH 7.4; 37 C, 2 h; aptamer refolded from 95 C; 2 uL of 10 uM aptamer
Conditions: protein: commercial; label: 5' 6-FAM, 3' BHQ1 as printed in Methods (Results text states FAM 3', BHQ 5'); hairpin (stated design)

Amyloid beta 1-42, sequence (P05067 672-713): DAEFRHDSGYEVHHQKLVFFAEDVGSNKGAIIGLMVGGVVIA

B1: Abeta aptamer (AAP) (structured_DNA)
DNA: TGGGGGGCGGACGATAGGGGCCCCCCGGTAGGATGGACG
binding result: binds
